Assay [1] addresses T1, mouse sortilin-1 (Sort1; GenBank Accession No. NM 019972) expressed in COS-7 cells (mouse, UniProt Q6PHU5 74-825).
T1 construct: cDNA clone from a mouse library, transfected into COS-7 cells; also called PGRN-R; PGRN receptor
T1 sequence: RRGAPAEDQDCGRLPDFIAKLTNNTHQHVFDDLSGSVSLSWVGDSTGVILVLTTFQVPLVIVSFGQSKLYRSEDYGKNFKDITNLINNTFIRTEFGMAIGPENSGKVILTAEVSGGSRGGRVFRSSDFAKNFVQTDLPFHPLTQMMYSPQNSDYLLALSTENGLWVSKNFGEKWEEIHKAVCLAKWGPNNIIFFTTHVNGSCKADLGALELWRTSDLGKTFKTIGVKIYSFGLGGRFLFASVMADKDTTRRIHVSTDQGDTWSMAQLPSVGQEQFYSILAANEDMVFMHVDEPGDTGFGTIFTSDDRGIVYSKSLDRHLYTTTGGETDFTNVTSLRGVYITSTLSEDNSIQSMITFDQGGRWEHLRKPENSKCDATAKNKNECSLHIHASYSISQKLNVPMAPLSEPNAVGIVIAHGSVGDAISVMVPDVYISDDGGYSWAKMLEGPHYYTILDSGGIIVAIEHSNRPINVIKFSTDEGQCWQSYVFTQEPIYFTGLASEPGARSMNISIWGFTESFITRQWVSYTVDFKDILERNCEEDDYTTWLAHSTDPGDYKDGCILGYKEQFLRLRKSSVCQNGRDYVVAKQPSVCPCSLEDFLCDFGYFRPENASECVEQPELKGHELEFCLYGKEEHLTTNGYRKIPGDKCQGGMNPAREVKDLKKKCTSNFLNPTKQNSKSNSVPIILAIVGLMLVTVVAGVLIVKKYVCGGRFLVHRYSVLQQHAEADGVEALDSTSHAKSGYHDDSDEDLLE
Briefly: AP staining of transfected COS-7 cells.

Assay [2] deals with T2, rat sortilin (Sort1) on E18 rat cortical neurons (rat, UniProt O54861 74-825).
T2 construct: Native receptor on cultured rat neurons
T2 sequence: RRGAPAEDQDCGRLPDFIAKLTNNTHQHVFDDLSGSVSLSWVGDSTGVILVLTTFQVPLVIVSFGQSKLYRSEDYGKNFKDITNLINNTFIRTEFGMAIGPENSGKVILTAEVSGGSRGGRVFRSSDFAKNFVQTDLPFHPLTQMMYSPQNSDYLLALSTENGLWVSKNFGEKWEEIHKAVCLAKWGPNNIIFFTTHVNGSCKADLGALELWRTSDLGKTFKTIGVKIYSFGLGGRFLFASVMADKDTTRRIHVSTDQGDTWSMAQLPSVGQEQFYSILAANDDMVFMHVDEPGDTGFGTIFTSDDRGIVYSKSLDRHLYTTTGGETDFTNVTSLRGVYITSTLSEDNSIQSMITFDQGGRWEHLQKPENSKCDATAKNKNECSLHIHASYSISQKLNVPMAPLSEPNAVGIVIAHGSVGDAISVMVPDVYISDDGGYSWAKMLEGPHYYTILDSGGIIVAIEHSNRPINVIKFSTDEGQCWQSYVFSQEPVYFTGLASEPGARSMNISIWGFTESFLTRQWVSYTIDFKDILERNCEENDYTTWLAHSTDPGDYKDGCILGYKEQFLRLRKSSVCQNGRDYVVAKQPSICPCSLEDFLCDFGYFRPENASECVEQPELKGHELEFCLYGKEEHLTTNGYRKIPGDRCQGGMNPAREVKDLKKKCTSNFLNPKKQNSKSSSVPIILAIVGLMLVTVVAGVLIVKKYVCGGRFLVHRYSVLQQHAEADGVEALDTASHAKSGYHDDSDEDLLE
Briefly: AP staining of cultured E18 rat cortical neurons (the neuronal PGRN binding site is identified by the filing as Sort1). Here is the method:
Rat (Sprague-Dawley) cortical neurons were isolated from E18 embryos and cultured in vitro for 3-21 days. Cultures were maintained in Neurobasal-A medium supplemented with B27, GLUTAMAX™ (2 mM), sodium pyruvate (1 mM), penicillin, and streptomycin. The binding of 10 nM AP-PGRN or 10 nM AP was detected as a dark reaction product produced by alkaline phosphatase (AP). Binding was measured as follows. The AP tagged ligand (in NBA) was incubated with the cortical neurons for 1 hr at 4° C., washed three times with HBH buffer, fixed with formaldehyde, and after washing again with HBH the neurons were incubated in a 67° C. oven to inactivate the endogenous AP. The tagged AP was then visualized using AP substrate 5-bromo-4-chloro-3-indolyl phosphate/nitro blue tetrazolium, which results in a dark precipitate. […] The addition of 100 nM Flag-PGRN displaced 10 nM AP-PGRN (FIG. 1C, middle panel).

Assay [3] addresses T1, mouse sortilin-1 (Sort1; GenBank …). Put plainly: saturation binding of AP-tagged ligand to COS-7 cells transfected with sortilin (PGRN-R), bound AP read as optical density of the reaction product. The procedure:
(§1) FIG. 2B is a graph depicting the saturation analysis of binding of AP-PGRN to COS-7 cells transfected with the PRGN-R, sortilin. The binding of AP-PGRN, measured by the optical density (OD units) of AP ligand bound, was determined as a function of ligand concentration (nM).
(§2) To determine the molecular nature of the neuronal binding site of PGRN, expression cloning experiments utilizing AP-PGRN as a tagged ligand were conducted. COS-7 (ATCC No. CRL-1651) cells were transfected with expression vectors containing mouse cDNAs using FUGENE® 6 according to manufacturer's specifications (Roche). An arrayed adult mouse brain cDNA library (OriGene) of 225,000 clones was screened in pools of 5,000 at a time, as well as a library consisting of 352 individual preparations of cDNAs encoding transmembrane proteins (GFC-transfection array panel, OriGene). […] In both cases, unlabeled 100 nM PGRN displaced binding (FIG. 2A, lower-right panel, and FIG. 3A, right panel).

Assay [4] has the same target. Put plainly: saturation binding of AP-PGRN to Sort1-transfected COS-7 cells, bound AP activity (OD); Sort1-transfected COS-7 cells, FIG. 2B. The procedure: as §1, §2
For assay [5], the target named is T3, human SorLA (GenBank Accession No. U60975) expressed in COS-7 cells (human, UniProt Q92673 82-2214).
T3 construct: whole, on cells
Briefly: AP staining of transfected COS-7 cells.

In assay [6] the target is T4, mouse SorCS1 (GenBank Accession No. BC007486) expressed in COS-7 cells (mouse, UniProt Q9JLC4 34-1167).
T4 construct: whole, on cells
T4 sequence (looked up): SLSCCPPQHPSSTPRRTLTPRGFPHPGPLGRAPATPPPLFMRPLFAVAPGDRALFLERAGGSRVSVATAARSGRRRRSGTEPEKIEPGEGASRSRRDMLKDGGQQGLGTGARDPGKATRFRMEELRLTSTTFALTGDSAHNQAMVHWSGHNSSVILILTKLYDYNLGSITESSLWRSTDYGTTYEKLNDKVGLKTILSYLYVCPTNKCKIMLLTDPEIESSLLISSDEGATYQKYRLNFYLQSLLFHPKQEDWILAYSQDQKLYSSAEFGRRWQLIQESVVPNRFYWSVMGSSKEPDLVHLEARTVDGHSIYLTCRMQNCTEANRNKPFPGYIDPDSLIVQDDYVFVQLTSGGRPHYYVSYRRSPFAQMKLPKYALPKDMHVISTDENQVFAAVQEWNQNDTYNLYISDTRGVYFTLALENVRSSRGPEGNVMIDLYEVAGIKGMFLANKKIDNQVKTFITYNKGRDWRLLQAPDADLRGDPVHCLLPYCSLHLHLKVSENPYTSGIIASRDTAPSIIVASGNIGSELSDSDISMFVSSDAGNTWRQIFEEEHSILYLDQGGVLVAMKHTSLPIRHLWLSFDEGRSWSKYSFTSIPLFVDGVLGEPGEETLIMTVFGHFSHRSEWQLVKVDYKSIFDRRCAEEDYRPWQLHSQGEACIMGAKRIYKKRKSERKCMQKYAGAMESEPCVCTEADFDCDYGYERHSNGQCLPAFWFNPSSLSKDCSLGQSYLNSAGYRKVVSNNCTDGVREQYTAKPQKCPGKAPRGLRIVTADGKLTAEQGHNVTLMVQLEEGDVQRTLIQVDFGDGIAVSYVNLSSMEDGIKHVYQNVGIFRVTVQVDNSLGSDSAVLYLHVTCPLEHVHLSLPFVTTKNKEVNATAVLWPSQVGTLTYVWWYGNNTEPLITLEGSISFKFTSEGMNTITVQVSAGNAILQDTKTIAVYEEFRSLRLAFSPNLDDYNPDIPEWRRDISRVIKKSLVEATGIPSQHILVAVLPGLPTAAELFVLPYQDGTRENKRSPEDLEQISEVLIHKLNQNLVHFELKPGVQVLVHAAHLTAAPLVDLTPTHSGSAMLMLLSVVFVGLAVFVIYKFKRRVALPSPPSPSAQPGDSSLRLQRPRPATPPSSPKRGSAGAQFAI
Put plainly: AP staining of transfected COS-7 cells.

The target of assay [7] is T2, rat sortilin (Sort1) on E18 rat …. Briefly: saturation binding of AP-PGRN to cultured cortical neurons (FIG. 1D); neuronal PGRN binding sites, identified by the filing as Sort1; cultured cortical neurons (FIG. 1D), species not stated.

What is called EC50 (read off the curve) is the concentration that produces a half-maximal response. A lower EC50 (read off the curve) goes with a more potent agent. In general, Kd refers to a measure of binding affinity in units of concentration. A lower Kd goes with tighter binding.

T3 sequence (Q92673 82-2214, one chain of several): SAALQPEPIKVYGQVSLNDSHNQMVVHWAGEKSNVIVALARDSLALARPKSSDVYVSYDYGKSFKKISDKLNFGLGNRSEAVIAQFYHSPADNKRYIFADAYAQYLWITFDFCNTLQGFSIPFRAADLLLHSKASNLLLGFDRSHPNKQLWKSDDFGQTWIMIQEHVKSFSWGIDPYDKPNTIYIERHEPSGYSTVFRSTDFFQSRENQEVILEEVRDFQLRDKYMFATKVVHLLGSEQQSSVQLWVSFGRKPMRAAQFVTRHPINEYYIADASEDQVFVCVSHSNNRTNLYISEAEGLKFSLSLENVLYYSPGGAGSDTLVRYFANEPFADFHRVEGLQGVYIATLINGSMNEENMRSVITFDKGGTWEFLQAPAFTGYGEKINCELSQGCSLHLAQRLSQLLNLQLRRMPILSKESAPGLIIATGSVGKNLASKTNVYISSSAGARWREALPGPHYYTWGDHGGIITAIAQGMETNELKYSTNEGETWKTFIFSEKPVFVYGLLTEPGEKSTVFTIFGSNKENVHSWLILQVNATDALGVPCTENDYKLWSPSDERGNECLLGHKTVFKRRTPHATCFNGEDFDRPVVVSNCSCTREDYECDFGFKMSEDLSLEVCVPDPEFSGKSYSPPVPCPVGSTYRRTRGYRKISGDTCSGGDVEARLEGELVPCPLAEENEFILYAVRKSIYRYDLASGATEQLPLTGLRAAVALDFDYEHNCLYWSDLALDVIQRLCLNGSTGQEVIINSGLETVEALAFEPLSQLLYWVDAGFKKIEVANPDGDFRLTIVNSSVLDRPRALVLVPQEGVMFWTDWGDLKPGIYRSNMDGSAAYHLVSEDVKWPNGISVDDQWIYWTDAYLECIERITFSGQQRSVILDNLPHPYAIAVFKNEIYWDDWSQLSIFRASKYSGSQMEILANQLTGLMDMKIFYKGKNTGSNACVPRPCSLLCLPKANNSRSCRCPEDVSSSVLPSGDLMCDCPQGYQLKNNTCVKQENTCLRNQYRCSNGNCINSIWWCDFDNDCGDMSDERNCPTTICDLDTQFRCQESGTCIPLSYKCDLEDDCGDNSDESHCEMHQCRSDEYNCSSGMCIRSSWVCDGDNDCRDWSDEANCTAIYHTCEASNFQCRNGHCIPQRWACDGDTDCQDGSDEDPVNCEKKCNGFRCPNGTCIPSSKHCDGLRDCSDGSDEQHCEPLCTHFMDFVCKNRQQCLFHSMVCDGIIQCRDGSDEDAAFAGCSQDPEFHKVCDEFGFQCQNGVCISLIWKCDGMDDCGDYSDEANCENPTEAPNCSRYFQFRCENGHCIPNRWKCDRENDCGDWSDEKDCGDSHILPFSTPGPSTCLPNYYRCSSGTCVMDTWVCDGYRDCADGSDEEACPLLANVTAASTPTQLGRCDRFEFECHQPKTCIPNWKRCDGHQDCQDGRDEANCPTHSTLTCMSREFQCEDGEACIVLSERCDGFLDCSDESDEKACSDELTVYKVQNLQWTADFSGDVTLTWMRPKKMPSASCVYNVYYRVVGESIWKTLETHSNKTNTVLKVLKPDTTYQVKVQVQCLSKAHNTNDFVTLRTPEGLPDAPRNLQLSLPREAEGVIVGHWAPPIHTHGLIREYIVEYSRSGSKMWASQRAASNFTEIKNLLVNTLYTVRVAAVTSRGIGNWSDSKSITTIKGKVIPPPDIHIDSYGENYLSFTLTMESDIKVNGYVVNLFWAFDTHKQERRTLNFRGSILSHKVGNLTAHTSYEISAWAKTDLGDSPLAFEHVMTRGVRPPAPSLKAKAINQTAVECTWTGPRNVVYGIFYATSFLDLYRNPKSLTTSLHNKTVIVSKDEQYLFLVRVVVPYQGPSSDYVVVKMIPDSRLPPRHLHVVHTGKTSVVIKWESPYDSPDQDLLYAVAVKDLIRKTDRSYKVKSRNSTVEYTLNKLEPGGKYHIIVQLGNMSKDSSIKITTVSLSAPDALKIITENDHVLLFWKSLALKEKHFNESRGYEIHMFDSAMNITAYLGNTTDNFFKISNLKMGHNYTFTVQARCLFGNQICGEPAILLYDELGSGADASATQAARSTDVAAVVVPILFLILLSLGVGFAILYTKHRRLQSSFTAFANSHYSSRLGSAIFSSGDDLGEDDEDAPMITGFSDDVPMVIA

B1: alkaline-phosphatase (AP) alone (enzyme, UniProt P05187 23-511, looked up)
chain: IIPVEEENPDFWNREAAEALGAAKKLQPAQTAAKNLIIFLGDGMGVSTVTAARILKGQKKDKLGPEIPLAMDRFPYVALSKTYNVDKHVPDSGATATAYLCGVKGNFQTIGLSAAARFNQCNTTRGNEVISVMNRAKKAGKSVGVVTTTRVQHASPAGTYAHTVNRNWYSDADVPASARQEGCQDIATQLISNMDIDVILGGGRKYMFRMGTPDPEYPDDYSQGGTRLDGKNLVQEWLAKRQGARYVWNRTELMQASLDPSVTHLMGLFEPGDMKYEIHRDSTLDPSLMEMTEAALRLLSRNPRGFFLFVEGGRIDHGHHESRAYRALTETIMFDDAIERAGQLTSEEDTLSLVTADHSHVFSFGGYPLRGSSIFGLAPGKARDRKAYTVLLYGNGPGYVLKDGARPDVTESESGSPEYRQQSAVPLDEETHAGEDVAVFARGPQAHLVHGVQEQTFIAHVMAFAACLEPYTACDLAPPAGTTDAAHPG
notes: Control for the AP tag
For the molecule B1, the binding result in assay [1] was “no binding (tested: 20 nM)”; in assay [2] it was “no binding (tested: 10 nM)”.

B2: AP-PGRN (alkaline phosphatase fused to human progranulin, huPGRN, GenBank Accession No. BC010577) (ligand)
chain: TRCPDGQFCPVACCLDPGGASYSCCRPLLDKWPTTLSRHLGGPCQVDAHCSAGHSCIFTVSGTSSCCPFPEAVACGDGHHCCPRGFHCSADGRSCFQRSGNNSVGAIQCPDSQFECPDFSTCCVMVDGSWGCCPMPQASCCEDRVHCCPHGAFCDLVHTRCITPTGTHPLAKKLPAQRTNRAVALSSSVMCPDARSRCPDGSTCCELPSGKYGCCPMPNATCCSDHLHCCPQDTVCDLIQSKCLSKENATTDLLTKLPAHTVGDVKCDMEVSCPDGYTCCRLQSGAWGCCPFTQAVCCEDHIHCCPAGFTCDTQKGTCEQGPHQVPWMEKAPAHLSLPDPQALKRDVPCDNVSSCPSSDTCCQLTSGEWGCCPIPEAVCCSDHQHCCPQGYTCVAEGQCQRGSEIVAGLEKMPARRASLSHPRDIGCDQHTSCPVGQTCCPSLGGSWACCQLPHAVCCEDRQHCCPAGYTCNVKARSCEKEVVSAQPATFLARSPHVGVKDVECGEGHFCHDNQTCCRDNRQGWACCPYRQGVCCADRRHCCPAGFRCAARGTKCLRREAPRWDAPLRDPALRQLL
notes: Made in HEK293T cells from pAPtag-5; also called AP-PRGN; AP tagged ligand; not shown: alkaline phosphatase (AP) tag of expression vector pAPtag-5
As to B2, the “EC50 (read off the curve)” value in assay [3] is about 3 nM. The Kd was 6 nM in assay [4] and about 20 nM in assay [7]. Further, the binding result in assay [5] and in assay [6] was “no binding (tested: 120 nM)” each time.

These data come from patent publication US20120039865A1 (YALE UNIVERSITY, published 2012).
